Laboratory results as given in patent US20250057951A1, “DISCERNIBLE CELL SURFACE PROTEIN VARIANTS OF CD117 FOR USE IN CELL THERAPY” (UNIVERSITÄT BASEL, priority 2021, published 2025).
Residue numbers refer to the chain shown, from its start. In names and notes the source's numbering stands.

T1: Y259G (limits assumed)
T1 construct: not in the list MOLECULES; also called human CD117 D1-2-3 variant Y259G
T1 extracellular domains 1, 2 and 3: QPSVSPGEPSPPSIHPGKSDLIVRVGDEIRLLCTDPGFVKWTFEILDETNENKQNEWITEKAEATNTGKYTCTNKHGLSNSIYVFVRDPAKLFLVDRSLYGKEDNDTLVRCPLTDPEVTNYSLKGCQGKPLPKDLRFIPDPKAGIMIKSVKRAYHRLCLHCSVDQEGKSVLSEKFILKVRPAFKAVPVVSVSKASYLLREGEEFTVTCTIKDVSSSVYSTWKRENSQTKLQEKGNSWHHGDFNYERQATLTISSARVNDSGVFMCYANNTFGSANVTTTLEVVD

B1: V120P (receptor)
extracellular domains 1, 2 and 3: T1 extracellular domains 1, 2 and 3 with V95P, G234Y
notes: not in the list MOLECULES; also called human CD117 D1-2-3 variant V120P
B2: S261V (receptor)
extracellular domains 1, 2 and 3: T1 extracellular domains 1, 2 and 3 with G234Y, S236V
notes: not in the list MOLECULES; also called human CD117 D1-2-3 variant S261V
B3: Refmab #3 (antibody, V domains shown)
VH: EVQLVQSGAEVKKPGESLKISCKGSGYSFTNYWIGWVRQMPGKGLEWMAIINPRDSDTRYRPSFQGQVTISADKSISTAYLQWSSLKASDTAMYYCARHGRGYEGYEGAFDIWGQGTLVTVSS
VL: DIQMTQSPSSLSASVGDRVTITCRSSQGIRSDLGWYQQKPGKAPKLLIYDASNLETGVPSRFSGSGSGTDFTLTISSLQPEDFATYYCQQANGFPLTFGGGTKVEIK
B4: Refmab #3 Fab fragment (Fab, V domains shown)
VH: B3 VH
VL: B3 VL

What was measured:
Biotinylated Avitag-hSCF [1] = molecular target: T2, Biotinylated Avitag-hSCF (human, UniProt P21583 26-190, limits assumed, biotinylated Avitag); test: BLI (Octet), steady state: biotinylated SCF on streptavidin biosensor, CD117 D1-2-3 variant as analyte; KD relative to WT
T2 construct: Bought reagent; also called hSCF (Acros Biosystems SCF-H82E1)
Procedure: (§1) Domains 4 and 5 were used as a negative, non-binding control.
(§2) Association was monitored for 300 s and dissociation for 600 s. […] Reference subtraction was performed against buffer only wells. Biosensors were not regenerated and a new set of SA biosensors was used for each analyte. Data were analyzed using the Octet Data Analysis software HT 12.0. Steady state data analysis was performed due to the fast on/off nature of the interaction.

[2] = Melting temperature of CD117 variants by differential scanning fluorimetry; format: physicochemical; conditions: Sypro Orange, PBS, 25 to 95° C.
Procedure: Biophysical properties of the elected variants were tested. Aggregation of the elected CD117 variants was determined by preparative size exclusion chromatography. Yield of the elected CD117 variants was determined by dividing the amount of protein after purification by the production volume. Melting temperature was measured by differential scanning fluorimetry using Sypro Orange (Sigma, PN: S5692-50 ul) and an RT-PCR machine (C1000 Thermal Cycler, Biorad). The samples were measured at 0.25-1.0 mg/ml in PBS buffer in duplicates and Sypro Orange was added at a final concentration of 5×. […] The fluorescent increase was monitored as a function of temperature and the melting temperature was determined as the inflexion point of the sigmoidal curve and compared to wild-type CD117. Results are shown in FIGS. 4 (aggregation), 5 (yield) and 6 (melting temperature).

Biotinylated Avitag-hSCF [3] = molecular target: T2, Biotinylated Avitag-hSCF; test: BLI (Octet), steady state: biotinylated SCF on streptavidin biosensor, CD117 D1-2-3 variant as analyte
Procedure: as §1, §2

Refmab #3 = test: Octet: binding of CD117 variants to Refmab #3; conditions: qualitative Octet analysis
Procedure: A more sophisticated analysis of binding to the elected variants was performed with antibody Refmab #1. Binding of Refmab #1 to wt and variants (analyte) was measured in an Octet system RED96e or R8 at 25° C. with shaking at 1,000 rpm using 1× kinetic buffer (Sartorius, PN: 18-1105). First, the elected variants were screened for their ability to bind Refmab #1 using three different concentrations of analytes. Antibody Refmab #1 was captured by Anti-Human Fc capture biosensor (AHC) (Sartorius, PN: 18-5060) for 300 s at 0.5 to 1 μg/mL. As an analyte, human CD117 wt and variants, containing only domains 1, 2 and 3 (CD117 D1-2-3), was titrated at 500 nM, 50 nM and 5 nM. Association and dissociation of the analyte to Refmab #1 was monitored for 300 s and 900 s, respectively. Reference subtraction was performed against buffer only wells. AHC tips were regenerated using 10 mM Gly-HCl pH 1.7. Data were analyzed using the Octet Data Analysis software HT 12.0. Data were fitted (when possible) to a 1:1 binding model. Kinetic rates ka and […] globally fitted. Binding level of the elected variants were compared to wild type and are shown as percent in FIG. 7. For this qualitative analysis, the binding level of the top analyte concentration at end of the association step was used.
A similar experiment to that in Example 7 was performed, but utilizing Refmab's #2 and #3.

human wild-type CD117 [4] = molecular target: T3, human wild-type CD117 (human, UniProt P10721 26-976); test: flow cytometry, HEK-293T with wt CD117 vs vector alone, IgG at 0.063 µg/mL
T3 construct: also called wt CD117; KIT
Procedure: Binding of the antibodies to the transfected cells and the optimal assay conditions were evaluated in 384-well format. Detection of cellular expression was measured via high-throughput flow cytometry. Serial dilutions of each antibody were tested for immunoreactivity against cells expressing CD117 or vector alone. The optimal screening concentration for each antibody was determined based on the raw signal values and signal-to-background calculations. Each point represents the mean of four replicates.

CD117 D1-2-3 wt = molecular target: T4, CD117 D1-2-3 wt (human, UniProt P10721 26-311, limits assumed); test: BLI (Octet) as in Example 7, CD117 as analyte; affinity class as drawn, classes defined by the key on the sheet
T4 construct: also called human CD117 wt containing only domains 1, 2 and 3; wild type CD117 (recombinant purified)

Y259G = molecular target: T1, Y259G; test: BLI (Octet) as in Example 7, CD117 variant as analyte; affinity class as drawn, classes defined by the key on the sheet
Procedure: (§3) As an analyte, human CD117 wt and variants, containing only domains 1, 2 and 3 (CD117 D1-2-3), was titrated at 500 nM, 50 nM and 5 nM. […] Reference subtraction was performed against buffer only wells. AHC tips were regenerated using 10 mM Gly-HCl pH 1.7. Data were analyzed using the Octet Data Analysis software HT 12.0. Data were fitted (when possible) to a 1:1 binding model. Kinetic rates ka and ka were globally fitted. […] For this qualitative analysis, the binding level of the top analyte concentration at end of the association step was used.

[5] = molecular target: human CD117 D1-2-3 variant Y259P (human, UniProt P10721 26-311, limits assumed); test: as above
Procedure: as §3

[6] = molecular target: human CD117 D1-2-3 variant Y259A (human, UniProt P10721 26-311, limits assumed); test: as above
Procedure: as §3

[7] = molecular target: human CD117 D1-2-3 variant Y259E (human, UniProt P10721 26-311, limits assumed); test: as above
Procedure: as §3

S261V = molecular target: B2; test: as above
Procedure: as §3

[8] = molecular target: T5, human CD117 D1-2-3 variant S261Q (human, UniProt P10721 26-311, limits assumed); test: BLI (Octet) as in Example 7, CD117 variant as analyte; affinity class as drawn
T5 construct: Recombinant purified

[9] = molecular target: T6, human CD117 D1-2-3 variant S261E (human, UniProt P10721 26-311, limits assumed); test: as above
T6 construct: Recombinant purified

human wild-type CD117 [10] = molecular target: T3, human wild-type CD117; test: flow cytometry, HEK-293T with wt CD117 vs vector alone, Fab at 0.50 µg/mL

T2 sequence (P21583 26-190 limits assumed): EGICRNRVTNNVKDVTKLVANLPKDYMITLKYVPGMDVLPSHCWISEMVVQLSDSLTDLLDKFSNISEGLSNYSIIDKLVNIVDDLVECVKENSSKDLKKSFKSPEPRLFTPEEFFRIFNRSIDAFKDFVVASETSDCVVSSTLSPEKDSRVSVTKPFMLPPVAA

With B1 the binding result (Biotinylated Avitag-hSCF [1]) was “binds” and the melting temperature [2] was “two melting points were measured”.

In the case of B2, the binding result (Biotinylated Avitag-hSCF [3]) is reported as “no binding (tested: 1000 nM (not on the sheet))” and the “binding to Refmab #3 compared to wild type CD117” value (Refmab #3) is reported as “strong decrease in binding”.

For B3, the “Signal:Background” value (human wild-type CD117 [4]) was 8 ratio to background, the Kd (CD117 D1-2-3 wt) was under 5 nM and the Kd (Y259G) was over 50 nM. It also gave a Kd [5] of over 50 nM, a Kd [6] of over 50 nM and a Kd [7] of under 5 nM. For the same molecule, the Kd (S261V) was over 50 nM, the binding result [8] was “no binding (tested: not shown on the sheet)” and the binding result [9] was “no binding (tested: not shown on the sheet)”.

For B4, the “Signal:Background” value (human wild-type CD117 [10]) was 6 ratio to background.
